According to US12427188B2, “Pyocyanine demethylases and related phenazine degrading agents compositions, methods and systems for interfering with viability of bacteria” (priority 2020, dated 2025):

Columns and labels:
[1] = Protein yield of PodA variants purified from inclusion bodies of overexpression culture; settings: purified from inclusion bodies, per L of E. coli overexpression culture
Summary of the method: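 E. coli BL21 expression induced with 50 μM IPTG, overnight at 16° C. Inclusion-body pellet washed in Triton-X, solubilised in 8M urea, Ni-NTA purified, refolded by stepwise urea dialysis, TEV-cleaved and stored in 20% glycerol. Concentration by absorbance using extinction coefficient and MW.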

[2] = Activity after boiling (kinetic stability); assay type: physicochemical; settings: after 30 and 60 min of boiling; PodA 3 μM, PYO 100 μM
Procedure: FIG. 13. Activity of WT PodA30-162 and PodA10 after boiling. Protein was boiled as described in Materials and Methods, followed by an activity assay with PodA (3 μM) and PYO (100 μM) in a Spectramax M3 plate reader monitoring PYO absorbance (690 nm) overtime. Specific activity (nmol min-1 mg-1) was calculated for each sample. Replicates of PodA^WT un-boiled were averaged and set to 100% activity (dashed line). All other activities of boiled samples were compared to this value and presented as a percentage. Data represent technical triplicates and error bars represent standard deviation. A t-test was completed, with * representing a p-value<0.05 and ns representing not significant.
Due to the high thermal stability of PodA, stability assays that rely on monitoring protein unfolding over a temperature gradient were not suitable for the related testing. Therefore the enzyme's kinetic stability were analyzed by boiling WT PodA41-162 and PodA10 and measuring activity of each protein after specified boiling times. […] We also noted that several designed mutations in PodA8 and PodA10 were not prevalent in a multiple-sequence alignment of PodA homologs (FIG. 14), indicating the importance of the atomistic calculations to design success

[3] = tested on: P. aeruginosa strain PA14; assay: PodA and tobramycin liquid (planktonic) synergy experiments; assay type: cell-based, Pseudomonas aeruginosa; settings: LB; PodA10 5 μM; compared to individual antibiotic controls
Procedure: Pseudomonas aeruginosa PodA and tobramycin liquid synergy experiments. For planktonic synergy experiments, starter cultures were grown 24 h at 37° C. shaking in LB. Stationary phase cultures (usually between OD500 4-6) were aliquoted (100 μL) into 96-well clear bottom flat well plates (VWR). Antibiotics and PodA were diluted into stock concentrations to pipette 5 μL antibiotic and 2 μL PodA per well. Antibiotics were diluted into water and PodA was diluted into 50 mM HEPES (pH 7.5). Plates were incubated in a humidity Tupperware chamber lined with wet paper towel at 37° C. for 10 h. After incubation, wells were pipetted to resuspend, and each well was diluted 1:10 into fresh LB. From that mixture, 10 μL of diluted cells were pipetted into 90 μL fresh LB in 96-well flat bottom plates. Mineral Oil, light (65 μL undiluted, Sigma-Aldrich) was pipetted onto top of cultures to prevent dehydration and allow for oxygen diffusion. Microtiter plates were incubated at 37° C. inside a temperature-controlled chamber of a BioTek Synergy 4 plate reader. […] Cells from each 10 μL drips dilution were counted if colonies were between 10-100.
PodA10 and tobramycin cell treatments (same samples from FIG. 8) were diluted in series and dilutions were plated onto LB agar. Cells were counted if a dilution contained 10-100 colonies. […]

B1: PodA10: Designed PodA41-162 variant: A53N, I73T, A87V, M99V, A129T; SEQ ID NO: 4 (protein)
chain: MVTMTLDVKNDQVNKHDFGKPGMDVGDMDIFSDTLSVDGKQVGYDGGVCFFTNVTPDNPVTYCELTIHLDAGEIFARSLTPATLAPFTMTITGGTGEYANSKGELTVSGVATPDEKYELKLTK
Yield [1]: 5.92 mg/L^−1 | Activity after boiling [2]: significantly higher activity compared to WT PodA30-162 | cell viability (CFUs) [3]: did not increase cell death
